From US20080020978A1 (Amgen, published 2008)
Square brackets hold non-standard residues; d marks the D form. Oic = O=C(O)[C@@H]1C[C@@H]2CCCC[C@@H]2N1; hArg = N=C(N)NCCCC[C@H](N)C(=O)O; Tic = O=C(O)[C@@H]1Cc2ccccc2CN1; Cit = NC(=O)NCCC[C@H](N)C(=O)O; Aib = CC(C)(N)C(=O)O

B1: SEQ ID NO 665 (peptide)
peptide: Ac-WVTH[Cit]LAGLLS[Cit]SGGVV[Cit]KNFVPTDVG[Oic]KAF-NH2
SMILES: CC(=O)N[C@@H](Cc1c[nH]c2ccccc12)C(=O)N[C@H](C(=O)N[C@H](C(=O)N[C@@H](Cc1c[nH]cn1)C(=O)N[C@@H](CCCNC(N)=O)C(=O)N[C@@H](CC(C)C)C(=O)N[C@@H](C)C(=O)NCC(=O)N[C@@H](CC(C)C)C(=O)N[C@@H](CC(C)C)C(=O)N[C@@H](CO)C(=O)N[C@@H](CCCNC(N)=O)C(=O)N[C@@H](CO)C(=O)NCC(=O)NCC(=O)N[C@H](C(=O)N[C@H](C(=O)N[C@@H](CCCNC(N)=O)C(=O)N[C@@H](CCCCN)C(=O)N[C@@H](CC(N)=O)C(=O)N[C@@H](Cc1ccccc1)C(=O)N[C@H](C(=O)N1CCC[C@H]1C(=O)N[C@H](C(=O)N[C@@H](CC(=O)O)C(=O)N[C@H](C(=O)NCC(=O)N1[C@H](C(=O)N[C@@H](CCCCN)C(=O)N[C@@H](C)C(=O)N[C@@H](Cc2ccccc2)C(N)=O)C[C@@H]2CCCC[C@@H]21)C(C)C)[C@@H](C)O)C(C)C)C(C)C)C(C)C)[C@@H](C)O)C(C)C
B2: SEQ ID NO 662 (peptide)
peptide: Ac-LAGLLS[Cit]SGGVV[hArg]KNFVPTDVG[Oic]FAF-NH2
SMILES: CC(=O)N[C@@H](CC(C)C)C(=O)N[C@@H](C)C(=O)NCC(=O)N[C@@H](CC(C)C)C(=O)N[C@@H](CC(C)C)C(=O)N[C@@H](CO)C(=O)N[C@@H](CCCNC(N)=O)C(=O)N[C@@H](CO)C(=O)NCC(=O)NCC(=O)N[C@H](C(=O)N[C@H](C(=O)N[C@@H](CCCCNC(=N)N)C(=O)N[C@@H](CCCCN)C(=O)N[C@@H](CC(N)=O)C(=O)N[C@@H](Cc1ccccc1)C(=O)N[C@H](C(=O)N1CCC[C@H]1C(=O)N[C@H](C(=O)N[C@@H](CC(=O)O)C(=O)N[C@H](C(=O)NCC(=O)N1[C@H](C(=O)N[C@@H](Cc2ccccc2)C(=O)N[C@@H](C)C(=O)N[C@@H](Cc2ccccc2)C(N)=O)C[C@@H]2CCCC[C@@H]21)C(C)C)[C@@H](C)O)C(C)C)C(C)C)C(C)C
B3: SEQ ID NO 128 (peptide)
peptide: Ac-KWVTH[Cit]LAGLLS[Cit]SGGVVRKNFVPTDVGPKAF-NH2
SMILES: CC(=O)N[C@@H](CCCCN)C(=O)N[C@@H](Cc1c[nH]c2ccccc12)C(=O)N[C@H](C(=O)N[C@H](C(=O)N[C@@H](Cc1c[nH]cn1)C(=O)N[C@@H](CCCNC(N)=O)C(=O)N[C@@H](CC(C)C)C(=O)N[C@@H](C)C(=O)NCC(=O)N[C@@H](CC(C)C)C(=O)N[C@@H](CC(C)C)C(=O)N[C@@H](CO)C(=O)N[C@@H](CCCNC(N)=O)C(=O)N[C@@H](CO)C(=O)NCC(=O)NCC(=O)N[C@H](C(=O)N[C@H](C(=O)N[C@@H](CCCNC(=N)N)C(=O)N[C@@H](CCCCN)C(=O)N[C@@H](CC(N)=O)C(=O)N[C@@H](Cc1ccccc1)C(=O)N[C@H](C(=O)N1CCC[C@H]1C(=O)N[C@H](C(=O)N[C@@H](CC(=O)O)C(=O)N[C@H](C(=O)NCC(=O)N1CCC[C@H]1C(=O)N[C@@H](CCCCN)C(=O)N[C@@H](C)C(=O)N[C@@H](Cc1ccccc1)C(N)=O)C(C)C)[C@@H](C)O)C(C)C)C(C)C)C(C)C)[C@@H](C)O)C(C)C
B4: SEQ ID NO 659 (peptide)
peptide: Ac-WVTH[Cit]LAGLLS[Cit]SGGVV[hArg]KNFVPTDVG[Oic]FA-NH2
SMILES: CC(=O)N[C@@H](Cc1c[nH]c2ccccc12)C(=O)N[C@H](C(=O)N[C@H](C(=O)N[C@@H](Cc1c[nH]cn1)C(=O)N[C@@H](CCCNC(N)=O)C(=O)N[C@@H](CC(C)C)C(=O)N[C@@H](C)C(=O)NCC(=O)N[C@@H](CC(C)C)C(=O)N[C@@H](CC(C)C)C(=O)N[C@@H](CO)C(=O)N[C@@H](CCCNC(N)=O)C(=O)N[C@@H](CO)C(=O)NCC(=O)NCC(=O)N[C@H](C(=O)N[C@H](C(=O)N[C@@H](CCCCNC(=N)N)C(=O)N[C@@H](CCCCN)C(=O)N[C@@H](CC(N)=O)C(=O)N[C@@H](Cc1ccccc1)C(=O)N[C@H](C(=O)N1CCC[C@H]1C(=O)N[C@H](C(=O)N[C@@H](CC(=O)O)C(=O)N[C@H](C(=O)NCC(=O)N1[C@H](C(=O)N[C@@H](Cc2ccccc2)C(=O)N[C@@H](C)C(N)=O)C[C@@H]2CCCC[C@@H]21)C(C)C)[C@@H](C)O)C(C)C)C(C)C)C(C)C)[C@@H](C)O)C(C)C
B5: SEQ ID NO 655 (peptide)
peptide: Ac-WVTH[Cit]LAGLLS[Cit]SGGVV[hArg]KNFVPTDVGPF-NH2
SMILES: CC(=O)N[C@@H](Cc1c[nH]c2ccccc12)C(=O)N[C@H](C(=O)N[C@H](C(=O)N[C@@H](Cc1c[nH]cn1)C(=O)N[C@@H](CCCNC(N)=O)C(=O)N[C@@H](CC(C)C)C(=O)N[C@@H](C)C(=O)NCC(=O)N[C@@H](CC(C)C)C(=O)N[C@@H](CC(C)C)C(=O)N[C@@H](CO)C(=O)N[C@@H](CCCNC(N)=O)C(=O)N[C@@H](CO)C(=O)NCC(=O)NCC(=O)N[C@H](C(=O)N[C@H](C(=O)N[C@@H](CCCCNC(=N)N)C(=O)N[C@@H](CCCCN)C(=O)N[C@@H](CC(N)=O)C(=O)N[C@@H](Cc1ccccc1)C(=O)N[C@H](C(=O)N1CCC[C@H]1C(=O)N[C@H](C(=O)N[C@@H](CC(=O)O)C(=O)N[C@H](C(=O)NCC(=O)N1CCC[C@H]1C(=O)N[C@@H](Cc1ccccc1)C(N)=O)C(C)C)[C@@H](C)O)C(C)C)C(C)C)C(C)C)[C@@H](C)O)C(C)C
B6: SEQ ID NO 657 (peptide)
peptide: Ac-[Cit]LAGLLS[Cit]SGGVV[hArg]KNFVPTDVGPFAF-NH2
SMILES: CC(=O)N[C@@H](CCCNC(N)=O)C(=O)N[C@@H](CC(C)C)C(=O)N[C@@H](C)C(=O)NCC(=O)N[C@@H](CC(C)C)C(=O)N[C@@H](CC(C)C)C(=O)N[C@@H](CO)C(=O)N[C@@H](CCCNC(N)=O)C(=O)N[C@@H](CO)C(=O)NCC(=O)NCC(=O)N[C@H](C(=O)N[C@H](C(=O)N[C@@H](CCCCNC(=N)N)C(=O)N[C@@H](CCCCN)C(=O)N[C@@H](CC(N)=O)C(=O)N[C@@H](Cc1ccccc1)C(=O)N[C@H](C(=O)N1CCC[C@H]1C(=O)N[C@H](C(=O)N[C@@H](CC(=O)O)C(=O)N[C@H](C(=O)NCC(=O)N1CCC[C@H]1C(=O)N[C@@H](Cc1ccccc1)C(=O)N[C@@H](C)C(=O)N[C@@H](Cc1ccccc1)C(N)=O)C(C)C)[C@@H](C)O)C(C)C)C(C)C)C(C)C
B7: SEQ ID NO 660 (peptide)
peptide: Ac-VTH[Cit]LAGLLS[Cit]SGGVV[hArg]KNFVPTDVG[Oic]FAF-NH2
SMILES: CC(=O)N[C@H](C(=O)N[C@H](C(=O)N[C@@H](Cc1c[nH]cn1)C(=O)N[C@@H](CCCNC(N)=O)C(=O)N[C@@H](CC(C)C)C(=O)N[C@@H](C)C(=O)NCC(=O)N[C@@H](CC(C)C)C(=O)N[C@@H](CC(C)C)C(=O)N[C@@H](CO)C(=O)N[C@@H](CCCNC(N)=O)C(=O)N[C@@H](CO)C(=O)NCC(=O)NCC(=O)N[C@H](C(=O)N[C@H](C(=O)N[C@@H](CCCCNC(=N)N)C(=O)N[C@@H](CCCCN)C(=O)N[C@@H](CC(N)=O)C(=O)N[C@@H](Cc1ccccc1)C(=O)N[C@H](C(=O)N1CCC[C@H]1C(=O)N[C@H](C(=O)N[C@@H](CC(=O)O)C(=O)N[C@H](C(=O)NCC(=O)N1[C@H](C(=O)N[C@@H](Cc2ccccc2)C(=O)N[C@@H](C)C(=O)N[C@@H](Cc2ccccc2)C(N)=O)C[C@@H]2CCCC[C@@H]21)C(C)C)[C@@H](C)O)C(C)C)C(C)C)C(C)C)[C@@H](C)O)C(C)C

Target: CGRP1 receptor (CRLR/RAMP1 complex) of human neuroblastoma SK-N-MC cells (human, UniProt Q16602 23-461; O60894 27-148)
Assay: cell-based or functional assay

Sequence of CGRP1 receptor (CRLR/RAMP1 complex) of human neuroblastoma SK-N-MC cells (Q16602 23-461, chain 1 of 2): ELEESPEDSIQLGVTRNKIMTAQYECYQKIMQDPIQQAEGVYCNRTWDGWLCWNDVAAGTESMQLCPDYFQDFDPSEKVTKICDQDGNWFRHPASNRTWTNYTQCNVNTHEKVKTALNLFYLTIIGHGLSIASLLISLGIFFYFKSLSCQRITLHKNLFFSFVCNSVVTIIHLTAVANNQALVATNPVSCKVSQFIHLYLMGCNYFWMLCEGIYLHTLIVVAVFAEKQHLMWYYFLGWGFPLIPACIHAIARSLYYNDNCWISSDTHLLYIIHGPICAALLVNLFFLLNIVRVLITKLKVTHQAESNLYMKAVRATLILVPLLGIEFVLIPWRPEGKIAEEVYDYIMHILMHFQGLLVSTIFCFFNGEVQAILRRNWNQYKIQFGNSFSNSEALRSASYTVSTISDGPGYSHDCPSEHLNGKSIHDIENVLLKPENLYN
Sequence of CGRP1 receptor (CRLR/RAMP1 complex) of human neuroblastoma SK-N-MC cells (O60894 27-148, chain 2 of 2): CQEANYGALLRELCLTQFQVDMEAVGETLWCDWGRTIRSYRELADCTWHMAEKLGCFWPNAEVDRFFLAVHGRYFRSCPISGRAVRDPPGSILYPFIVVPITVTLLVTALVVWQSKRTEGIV

IC50 [nM] | Binder
3.77 | B1
2.66 | WVTHXLAGLLSXSGGVVXKNXVPTDVGXFAF (Ac-WVTH[Cit]LAGLLS[Cit]SGGVV[hArg]KN[2-Nal]VPTDVG[Oic]FAF-NH2) [SEQ ID NO 137]
6.62 | WVTHXLAGLLSXSGGVVXKNFVPTDVGXFAF (Ac-WVTH[Cit]LAGLLS[Cit]SGGVV[hArg]KNFVPTDVG[Hyp]FAF-NH2) [SEQ ID NO 667]
3.57 | WVTHXLAGLLSXSGGVVXKNXVXTDVGXFAX (Ac-WVTH[Cit]LAGLLS[Cit]SGGVV[hArg]KN[2-Nal]V[Oic]TDVG[Oic]FA[2-Nal]-NH2) [SEQ ID NO 139]
6.01 | WVTHXLAGLLSXSGGVVXKNFVPTDVGXFAF (AC-WVTH[Cit]LAGLLS[Cit]SGGVV[hArg]KNFVPTDVG[Hyp]FAF-NH2) [SEQ ID NO 668]
2.24 | WVTHXLAGLLSXSGGVVXKNFVPTDVGPXAF (Ac-WVTH[Cit]LAGLLS[Cit]SGGVV[hArg]KNFVPTDVGP[1-Nal]AF-NH2) [SEQ ID NO 144]
3.22 | WVTHXLAGLLSXSGGVVXKNFVPTDVGPFAF (Ac-WVTH[Cit]LAGLLS[Cit]SGGVV[hArg]KNFVPTDVGPFAF-NH2) [SEQ ID NO 653]
89.9 | WVTHXLAGLLSXSGGVVXKNFVPTDVGPXAF (Ac-WVTH[Cit]LAGLLS[Cit]SGGVV[hArg]KNFVPTDVGP[Tic]AF-NH2) [SEQ ID NO 131]
3.45 | WVTHXLAGLLSXSGGVVXKNXVPTDVGXFAX (Ac-WVTH[Cit]LAGLLS[Cit]SGGVV[hArg]KN[2-Nal]VPTDVG[Oic]FA[2-Nal]-NH2) [SEQ ID NO 138]
11.2 | WVTHXLAGLLSXSGGVVXKNFVPTDVGXFAF (AC-WVTH[Cit]LAGLLS[Cit]SGGVV[hArg]KNFVPTDVG[Pip]FAF-NH2) [SEQ ID NO 666]
4.37 | Ac-WVTH[Cit]LAGLLS[Cit]SGGVV[hArg]KNFVPTDVG[Aib]FAF-NH2 [SEQ ID NO 670]
10.1 | WVTHXLAGLLSXSGGVVRKNFVPTDVGPXAF (Ac-WVTH[Cit]LAGLLS[Cit]SGGVVRKNFVPTDVGP[Tic]AF-NH2) [SEQ ID NO 146]
3.02 | Ac-WVTH[Cit]LAGLLS[Cit]SGGVVRKNFVPTDVG[Tic]FAF-NH2 [SEQ ID NO 140]
4.32 | Ac-WVTH[Cit]LAGLLS[Cit]SGGVVRKNFVPTDVG[Tic]FAF-NH2 [SEQ ID NO 141]
16.5 | B2
> 1000 | Ac-WVTH[Cit]LAGLLS[Cit]SGGVV[hArg]KNFVPTDVGPFA-NH2 (not fully specified) [SEQ ID NO 654]
13 | B3
> 1000 | B4
> 1000 | B5
13 | B6
3 | B7
8.74 | Ac-[Cit]LAGLLS[Cit]SGGVV[hArg]KNFVPTDVG[Oic]FAF-NH2 [SEQ ID NO 661]
